Data: the supplement of paper PMC12042874
± gives the uncertainty stated by the source.

Assay: amyloid nucleation score (Sup35N fusion, yeast selection) (log enrichment); library NNK3; higher = more nucleation; inactive = no reads after selection
Outline: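 Using DiMSum, nucleation scores were taken as the log enrichment of output over input reads, centred on the mode score of non-aggregating sequences. The input and output reads came from Illumina sequencing of plasmid inserts, with sequences under 100 input reads excluded. The yeast were psi-negative, expressed Sup35N fused to peptides of 20 random codons, were induced with 100 μM copper sulfate for 24 hours, and were grown 7 days at 30°C on medium lacking adenine and uracil.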

Row | Substance | amyloid nucleation score
1 | KCMFSIFSGAASVLLKMFMV | inactive
2 | IQNIVRLDSVVSMVFGRLVI | inactive
3 | YSFRCPGFNYYL | inactive
4 | QSSLVDGWKNLTKVRCGDYS | inactive
5 | QSASHRP | inactive
6 | NVIYFHTQGMY | inactive
7 | ISLYNRNIYCRLTFMLRVIR | inactive
8 | LARHSCSSNVYGNLQRTFFG | inactive
9 | GWFSYSRMSNCSLNSTK | inactive
10 | VIVCNECLG | 0.546 ± 0.42
11 | YIAVMILLCHVKHEMSLLII | 2.71 ± 0.055
12 | VFYSKKDRMGGQFS | inactive
13 | VEFSAIFFCTLLD | inactive
14 | YNSIMFNGW | inactive
15 | WTRGNRHVVLQLLGQVSF | inactive
16 | RGWVPVTVIQWIMIDCQFKA | 2.78 ± 0.054
17 | KDLQR | inactive
18 | NEDLIDVQVVHC | inactive
19 | YEQHSY | inactive
20 | VICGYLYVYVYHGFVGSLLG | inactive
21 | SLYKYRIWCMVFVVYFSQSQ | inactive
22 | CVFKTNVNGLMEEVLSGFKY | inactive
23 | GFFYRDDARNFVLVTNSWRL | inactive

Row | Substance | amyloid nucleation score
24 | SLIVQAL | inactive
25 | TLILTDRTWLNDLSSLLIQL | inactive
26 | YVGYRFSHFSSGKRSCSYL | inactive
27 | NTFCIFALTYIQWVPYLAMF | inactive
28 | MTPMRAAMTLICHMPARRFS | inactive
29 | SIALH | inactive
30 | CVWILSQLG | -0.797 ± 1.9
31 | ASNEERLLFKCLLKV | -0.411 ± 0.73
32 | RRARKWLVIDVRVPSLWSMR | inactive
33 | HMSQLTLYCCAKIRKVVPLL | inactive
34 | FTFNSWSSWWNTSSFLIKGQ | inactive
35 | AVAHA | inactive
36 | INQRLYEPFGRWVWTRYIAR | inactive
37 | GNGNFIRY | inactive
38 | MGKTMILKLLY | inactive
39 | HSFTAMLICSAYASAARYLR | inactive
40 | VLVSVGLVLWACCLRLQ | inactive
41 | SQTLYLGARVNRMRYVFSAC | inactive
42 | RVVSSGRGNSHTAATGWLWQ | inactive
43 | GECWAPVYDFWI | inactive
44 | SCCCDFYTTRKNQRCVHRFR | inactive
45 | IYDCFVTGSFLRK | inactive
46 | FRQLQGTSMLYLATPWS | inactive

Row | Substance | amyloid nucleation score
47 | SSRTTIQ | inactive
48 | LCSRRSGMVRIWIVSSARLY | inactive
49 | SCFVCNF | 2.86 ± 0.059
50 | TISLGE | inactive
51 | MILSESKYGFTFRLRVARQV | inactive
52 | FCMGLHSWNSNGRFCAVCTY | inactive
53 | SPRKTNEAWPTGLSYETSVA | inactive
54 | LQNLNGLIVKSCL | inactive
55 | GGRVNWM | inactive
56 | RIYDYFLFSCYRV | inactive
57 | PRIRD | inactive
58 | FDNKQGSFLKVLTFNFARVA | inactive
59 | VGNFYVSNVAFLWVK | inactive
60 | YSGDSWYVLYVGNPPGDYWR | 1.66 ± 0.09
61 | SREIYSMVMQSHLVQWGVIA | inactive
62 | NISLN | inactive
63 | NFLSSNFKKALHLFPISDCN | inactive
64 | RFNHMRNGFWRSIS | inactive
65 | RITPLDCLSNGRQ | inactive
66 | DLTNEMQVCVNV | -0.17 ± 0.88
67 | SSANVDMPVDCDTRWTCW | inactive
68 | HSMNHFIWLVFKMVSYVACV | inactive
69 | FTFGCSLCTMYTANSHFRGC | 1.87 ± 0.061

Row | Substance | amyloid nucleation score
70 | SSWMYGFCVSKSSWPRL | -0.272 ± 1.4
71 | GYDLFCGILMVDNSASIHTP | 2.84 ± 0.063
72 | AQSYSCFRNHFTDAVVCVFS | -0.496 ± 1.5
73 | GNVIMLLVTLASGCIPLSSE | inactive
74 | NCKALGFNWALMGKSMSLRG | inactive
75 | NINIMPG | inactive
76 | CINVFMQEPPPINIRWNCRE | 2.54 ± 0.061
77 | SKDNWSRSTYTGACLR | inactive
78 | LFSNSLNFLIK | 0.679 ± 0.28
79 | AVSLGVTRSKIRLASKVRVD | inactive
80 | YVRDLGSWMT | inactive
81 | CVPWWLNMPVLDCTLWNSSV | inactive
82 | KLDTVYRPSMRACVCNREFV | -0.515 ± 1.1
83 | VRHGCG | inactive
84 | SIMIVLCGKLTLNFSLRNVV | inactive
85 | NLRFRSIFSS | inactive
86 | RLIQTLWIFIKVRSRALVTH | inactive
87 | YWTANTDYTNVIGYKNTYVH | -0.337 ± 0.33
88 | ASTDEDFNTNTECT | inactive
89 | LYNGELNLMVRSNAEFMGSG | inactive
90 | RPAWTRTSTVDKLQIELRYE | inactive
91 | WFSNWYYVARDDYLISGREE | inactive
92 | EGKIHNSRLGYFQRRLIVS | inactive

Row | Substance | amyloid nucleation score
93 | RSNTQGLPQYKC | inactive
94 | HPVKLILILIWPAFERSRCG | inactive
95 | FVCLSNIHMGTKTVILAMCL | inactive
96 | VSGQVVFGLWGYLWLYEEVF | inactive
97 | QGVCWLVV | inactive
98 | MNDNLNNHVSDEIFSFVG | 0.813 ± 0.2
99 | SCCYAPRQPLWYASEFGVVG | inactive
100 | RLWTFCFA | inactive
101 | MIFSTYNNLLWLKSLQSTGG | inactive
102 | FGYHYWVSATCMSLALSWLT | inactive
103 | TIYCWTQNIHDY | 2.3 ± 0.086
104 | NAYTAHGYDKLRNQSKVAYR | inactive
105 | FVYSMKSCSYRDLGLNSYLL | inactive
106 | YWGKRSF | inactive
107 | ILTNTIRGKVDSLRLFKTSW | inactive
108 | QLRACPWYSEVFIEI | inactive
109 | CHFIRGESSRTKLGLEHTN | inactive
110 | VALWLVWLFYMRFRGSSFEL | inactive
111 | HVYMGSFVPR | inactive
112 | NYFGPGKQWPID | inactive
113 | LSNDF | inactive
114 | HWIISYQAGCFHLNTFKIMY | inactive
115 | LGFMKSFLGYSY | inactive

Row | Substance | amyloid nucleation score
116 | LSFSLWNLEYIEISRRNLTL | 1.2 ± 0.097
117 | LFIMFCFGIRCLEPDIRHCY | inactive
118 | HAGNWPSGSGRMSATRRFGW | inactive
119 | FFNSVMIYGWS | 0.07 ± 0.3
120 | NVIGPSNRVTSWMVKSMQMY | inactive
121 | LLGSFEGLIALYSGGWMAYR | -0.108 ± 0.77
122 | AFWSH | inactive
123 | HMKPSMLYITVCRWFKFY | inactive
124 | RYLGWFLKCTACRDHSEFII | inactive
125 | RCFRLIKVLKLLTVFEIITF | inactive
126 | SISTFYMLNMLKNMHLDGFG | inactive
127 | AFQLVHSWSFVGGTRALAVT | inactive
128 | MVNWPDGRILGSLRNWRHQD | inactive
129 | SRMSGVVGIAKV | inactive
130 | CFETCLSAVGHSIQAQKLSG | 0.193 ± 0.29
131 | GTLTVYNRDFRDIGDFKIYA | inactive
132 | GTGGSVRPHCEFSLRSSYMV | inactive
133 | YFFVHEKCQVGGRGGKLAKK | inactive
134 | VWFLLSILPHLTKSVSWGNT | inactive
135 | SEVFFGSVPNDARDKLNTNP | inactive
136 | MSCIFVSKKFLRLELGSSLY | inactive
137 | DSFSTDCVFYEIMCSEVRLA | inactive
138 | SLSYFLSFS | 1.14 ± 0.085

Row | Substance | amyloid nucleation score
139 | GRYAEETRYRVFLLIVMTRR | inactive
140 | GILYGPCSFWDFVRLEMSRF | -0.504 ± 0.8
141 | HPTFHSHDRGR | inactive
142 | DYIRRWLVYAYDKVFCRLTV | inactive
143 | NYLRSVLMASGWYWILCIHF | inactive
144 | DAIRQTSHMKLRSSYMQARR | inactive
145 | VYIRTGN | inactive
146 | GCGVC | -0.609 ± 0.98
147 | NYLKFCFSCRCIVLSRTVSW | inactive
148 | NMLYTKRNTVSSALVIYCVN | inactive
149 | FIVPWLFICRVVRNCVDSAV | inactive
150 | SDRNSEGLTLF | inactive
151 | AYKNRSFFLVVVITYNRVMP | inactive
152 | LVDCFKLCRELNGLILNVAA | 1.07 ± 0.12
153 | FSTVKQLYCFMTPIYASFNS | -0.531 ± 1
154 | IVLSNVRVGIACGDLC | 0.182 ± 0.44
155 | ATKYDFYMVNKRNFWKSRGF | inactive
156 | SRSLLEAWDHGTHAGLHVWS | inactive
157 | TQHTTYTPLPHTELRLPYPQ | inactive
158 | KQVNQSRLMISGGNCRGRAN | inactive
159 | NSVDP | inactive
160 | EVYFKMAQPLLHWDYERMQV | inactive
